Laboratory results reported in the Human Domainome abundance scans (Beltran et al. 2025).
± gives the uncertainty stated by the source.

B1: POU domain, class 3, transcription factor 1, residues 247 to 324; numbered along this chain, Q03052 (parent)
chain: EDAPSSDDLEQFAKQFKQRRIKLGFTQADVGLALGTLYGNVFSQTTICRFEALQLSFKNMCKLKPLLNKWLEETDSSS

Variants of: B1
Experiment: abundance fitness (aPCA) (normalised: wild type 0, dead -1); higher = more abundant; growth selection in yeast, the domain comes from the species named
Conditions: Homo sapiens

Variant | abundance fitness
EDAPSSDDLEKFAKQFKQRRIKLGFTQADVGLALGTLYGNVFSQTTICRFEALQLSFKNMCKLKPLLNKWLEETDSSS [Q11K] | 0.057 ± 0.077
EDAPSSDDLEGFAKQFKQRRIKLGFTQADVGLALGTLYGNVFSQTTICRFEALQLSFKNMCKLKPLLNKWLEETDSSS [Q11G] | -0.272 ± 0.055
EDAPSSDDLEAFAKQFKQRRIKLGFTQADVGLALGTLYGNVFSQTTICRFEALQLSFKNMCKLKPLLNKWLEETDSSS [Q11A] | -0.087 ± 0.07
EDAPSSDDLEWFAKQFKQRRIKLGFTQADVGLALGTLYGNVFSQTTICRFEALQLSFKNMCKLKPLLNKWLEETDSSS [Q11W] | -0.707 ± 0.1
EDAPSSDDLEVFAKQFKQRRIKLGFTQADVGLALGTLYGNVFSQTTICRFEALQLSFKNMCKLKPLLNKWLEETDSSS [Q11V] | -0.032 ± 0.052
EDAPSSDDLECFAKQFKQRRIKLGFTQADVGLALGTLYGNVFSQTTICRFEALQLSFKNMCKLKPLLNKWLEETDSSS [Q11C] | -0.266 ± 0.15
EDAPSSDDLEYFAKQFKQRRIKLGFTQADVGLALGTLYGNVFSQTTICRFEALQLSFKNMCKLKPLLNKWLEETDSSS [Q11Y] | -0.269 ± 0.14
EDAPSSDDLEFFAKQFKQRRIKLGFTQADVGLALGTLYGNVFSQTTICRFEALQLSFKNMCKLKPLLNKWLEETDSSS [Q11F] | -0.093 ± 0.17
EDAPSSDDLEDFAKQFKQRRIKLGFTQADVGLALGTLYGNVFSQTTICRFEALQLSFKNMCKLKPLLNKWLEETDSSS [Q11D] | 0.07 ± 0.095
EDAPSSDDLERFAKQFKQRRIKLGFTQADVGLALGTLYGNVFSQTTICRFEALQLSFKNMCKLKPLLNKWLEETDSSS [Q11R] | -0.149 ± 0.054
EDAPSSDDLEIFAKQFKQRRIKLGFTQADVGLALGTLYGNVFSQTTICRFEALQLSFKNMCKLKPLLNKWLEETDSSS [Q11I] | 0.134 ± 0.21
EDAPSSDDLENFAKQFKQRRIKLGFTQADVGLALGTLYGNVFSQTTICRFEALQLSFKNMCKLKPLLNKWLEETDSSS [Q11N] | 0.001 ± 0.15
EDAPSSDDLEMFAKQFKQRRIKLGFTQADVGLALGTLYGNVFSQTTICRFEALQLSFKNMCKLKPLLNKWLEETDSSS [Q11M] | -0.213 ± 0.095
EDAPSSDDLEQFACQFKQRRIKLGFTQADVGLALGTLYGNVFSQTTICRFEALQLSFKNMCKLKPLLNKWLEETDSSS [K14C] | -0.27 ± 0.12
EDAPSSDDLEQFADQFKQRRIKLGFTQADVGLALGTLYGNVFSQTTICRFEALQLSFKNMCKLKPLLNKWLEETDSSS [K14D] | -0.78 ± 0.35
EDAPSSDDLEQFAEQFKQRRIKLGFTQADVGLALGTLYGNVFSQTTICRFEALQLSFKNMCKLKPLLNKWLEETDSSS [K14E] | -0.053 ± 0.077
EDAPSSDDTEQFAKQFKQRRIKLGFTQADVGLALGTLYGNVFSQTTICRFEALQLSFKNMCKLKPLLNKWLEETDSSS [L9T] | -0.268 ± 0.11
EDAPSSDDREQFAKQFKQRRIKLGFTQADVGLALGTLYGNVFSQTTICRFEALQLSFKNMCKLKPLLNKWLEETDSSS [L9R] | -0.678 ± 0.1

Variant | abundance fitness
EDAPSSDDVEQFAKQFKQRRIKLGFTQADVGLALGTLYGNVFSQTTICRFEALQLSFKNMCKLKPLLNKWLEETDSSS [L9V] | -0.095 ± 0.058
EDAPSSDDSEQFAKQFKQRRIKLGFTQADVGLALGTLYGNVFSQTTICRFEALQLSFKNMCKLKPLLNKWLEETDSSS [L9S] | -0.833 ± 0.16
EDAPSSDDWEQFAKQFKQRRIKLGFTQADVGLALGTLYGNVFSQTTICRFEALQLSFKNMCKLKPLLNKWLEETDSSS [L9W] | -0.365 ± 0.091
EDAPSSDDLEQCAKQFKQRRIKLGFTQADVGLALGTLYGNVFSQTTICRFEALQLSFKNMCKLKPLLNKWLEETDSSS [F12C] | -0.881 ± 0.39
EDAPSSDDLEQGAKQFKQRRIKLGFTQADVGLALGTLYGNVFSQTTICRFEALQLSFKNMCKLKPLLNKWLEETDSSS [F12G] | -1.11 ± 0.23
EDAPSSDDLEQWAKQFKQRRIKLGFTQADVGLALGTLYGNVFSQTTICRFEALQLSFKNMCKLKPLLNKWLEETDSSS [F12W] | -0.362 ± 0.12
EDAPSSDDLEQNAKQFKQRRIKLGFTQADVGLALGTLYGNVFSQTTICRFEALQLSFKNMCKLKPLLNKWLEETDSSS [F12N] | -0.192 ± 0.3
EDAPSSDDLEQEAKQFKQRRIKLGFTQADVGLALGTLYGNVFSQTTICRFEALQLSFKNMCKLKPLLNKWLEETDSSS [F12E] | -0.738 ± 0.31
EDAPSSDDLEQPAKQFKQRRIKLGFTQADVGLALGTLYGNVFSQTTICRFEALQLSFKNMCKLKPLLNKWLEETDSSS [F12P] | -0.492 ± 0.2
EDAPSSDDLEQAAKQFKQRRIKLGFTQADVGLALGTLYGNVFSQTTICRFEALQLSFKNMCKLKPLLNKWLEETDSSS [F12A] | -0.391 ± 0.12
EDAPSSDDLEQIAKQFKQRRIKLGFTQADVGLALGTLYGNVFSQTTICRFEALQLSFKNMCKLKPLLNKWLEETDSSS [F12I] | -0.553 ± 0.45
EDAPSSDDLEQSAKQFKQRRIKLGFTQADVGLALGTLYGNVFSQTTICRFEALQLSFKNMCKLKPLLNKWLEETDSSS [F12S] | -0.544 ± 0.14
EDAPSSDDLEQRAKQFKQRRIKLGFTQADVGLALGTLYGNVFSQTTICRFEALQLSFKNMCKLKPLLNKWLEETDSSS [F12R] | -0.62 ± 0.12
EDAPSSDDLEQQAKQFKQRRIKLGFTQADVGLALGTLYGNVFSQTTICRFEALQLSFKNMCKLKPLLNKWLEETDSSS [F12Q] | -0.844 ± 0.31
EDAPSSDDLEQLAKQFKQRRIKLGFTQADVGLALGTLYGNVFSQTTICRFEALQLSFKNMCKLKPLLNKWLEETDSSS [F12L] | -0.547 ± 0.13
EDAPSSDDLEQVAKQFKQRRIKLGFTQADVGLALGTLYGNVFSQTTICRFEALQLSFKNMCKLKPLLNKWLEETDSSS [F12V] | -0.55 ± 0.14
EDAPSSDDLEQTAKQFKQRRIKLGFTQADVGLALGTLYGNVFSQTTICRFEALQLSFKNMCKLKPLLNKWLEETDSSS [F12T] | -1.16 ± 0.46
